Measurements from patent EP4219720A2 (Caribou Biosciences, Inc., dated 2023).

Tests used:
[1] = target: T1, Cas8, Cas7, Cas6 and Cas5 of E. coli Type I-E Cascade with J3 crRNA (Escherichia coli K-12 MG1655, UniProt Q46901 1-502; Q46899 2-363; Q46897 2-199; Q46898 1-224); assay: co-expression in E. coli, Ni-NTA capture by His6 on Cse2, SEC, Coomassie SDS-PAGE
T1 construct: They also hold the J3 crRNA; also called remaining Cascade subunits
T1 sequence 1: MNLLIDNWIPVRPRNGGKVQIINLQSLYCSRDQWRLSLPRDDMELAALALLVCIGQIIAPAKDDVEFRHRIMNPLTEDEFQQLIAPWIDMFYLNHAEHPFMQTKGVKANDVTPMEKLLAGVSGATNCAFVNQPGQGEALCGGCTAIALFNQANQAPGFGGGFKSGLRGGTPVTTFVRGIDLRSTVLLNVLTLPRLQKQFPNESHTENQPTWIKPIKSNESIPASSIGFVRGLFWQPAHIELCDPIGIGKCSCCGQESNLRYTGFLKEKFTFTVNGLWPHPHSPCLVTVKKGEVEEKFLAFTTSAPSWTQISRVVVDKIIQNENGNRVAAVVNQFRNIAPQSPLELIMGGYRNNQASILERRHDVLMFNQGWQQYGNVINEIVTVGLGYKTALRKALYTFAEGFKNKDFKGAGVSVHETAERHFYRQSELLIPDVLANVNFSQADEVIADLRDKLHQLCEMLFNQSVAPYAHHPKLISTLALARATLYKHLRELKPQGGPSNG
T1 sequence 2: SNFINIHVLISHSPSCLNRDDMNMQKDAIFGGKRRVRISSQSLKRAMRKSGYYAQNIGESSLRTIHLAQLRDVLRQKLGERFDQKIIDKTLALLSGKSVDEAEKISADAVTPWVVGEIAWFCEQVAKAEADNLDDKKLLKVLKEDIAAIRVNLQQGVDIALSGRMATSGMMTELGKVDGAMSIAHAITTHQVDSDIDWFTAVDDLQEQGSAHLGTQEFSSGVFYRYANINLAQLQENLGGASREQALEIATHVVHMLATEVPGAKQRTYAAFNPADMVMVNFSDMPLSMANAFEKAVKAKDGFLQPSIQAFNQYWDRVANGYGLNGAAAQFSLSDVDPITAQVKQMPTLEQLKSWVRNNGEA
T1 sequence 3: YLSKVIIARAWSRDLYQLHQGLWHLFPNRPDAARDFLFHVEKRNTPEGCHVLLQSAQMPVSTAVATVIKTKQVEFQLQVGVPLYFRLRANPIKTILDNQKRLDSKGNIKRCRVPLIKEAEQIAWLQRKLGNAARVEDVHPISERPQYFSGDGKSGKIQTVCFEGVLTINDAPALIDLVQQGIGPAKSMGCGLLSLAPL
T1 sequence 4: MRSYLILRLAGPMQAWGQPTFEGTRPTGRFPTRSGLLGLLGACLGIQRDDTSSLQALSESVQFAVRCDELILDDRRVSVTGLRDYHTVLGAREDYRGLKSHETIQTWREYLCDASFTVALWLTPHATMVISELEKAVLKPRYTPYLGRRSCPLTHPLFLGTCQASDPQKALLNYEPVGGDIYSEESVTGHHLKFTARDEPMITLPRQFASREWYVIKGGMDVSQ

[2] = target: T2, CasBCDE complex (Strep-tag II-HRV3C-Cse2, Cas7, Cas5, Cas6) with J3/L3 crRNAs (Escherichia coli K-12 MG1655, UniProt Q46899 2-363; Q46898 1-224; Q46897 2-199); assay: reconstitution from separately purified parts; tested by plasmid DNA cleavage
T2 construct: It also holds a crRNA (J3 or L3 guide), so it is a ribonucleoprotein; Removal of the Strep tag is not described; also called Cas8-less Cascade complex; Cas8-minus Cascade complex
T2 sequence 1: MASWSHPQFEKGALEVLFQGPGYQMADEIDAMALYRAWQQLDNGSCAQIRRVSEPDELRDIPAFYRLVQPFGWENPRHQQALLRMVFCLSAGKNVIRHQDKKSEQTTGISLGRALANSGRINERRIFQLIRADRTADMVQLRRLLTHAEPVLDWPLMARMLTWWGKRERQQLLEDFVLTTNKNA
T2 sequence 2: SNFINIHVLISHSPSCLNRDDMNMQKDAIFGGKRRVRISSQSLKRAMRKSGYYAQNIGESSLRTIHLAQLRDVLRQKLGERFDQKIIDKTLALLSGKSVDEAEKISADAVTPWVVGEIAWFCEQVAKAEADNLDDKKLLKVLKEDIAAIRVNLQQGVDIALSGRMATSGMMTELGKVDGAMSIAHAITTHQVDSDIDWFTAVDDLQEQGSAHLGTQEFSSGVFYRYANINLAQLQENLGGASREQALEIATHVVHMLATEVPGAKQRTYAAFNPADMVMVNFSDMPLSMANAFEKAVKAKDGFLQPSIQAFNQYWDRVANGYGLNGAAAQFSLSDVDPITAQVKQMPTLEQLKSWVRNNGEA
T2 sequence 3: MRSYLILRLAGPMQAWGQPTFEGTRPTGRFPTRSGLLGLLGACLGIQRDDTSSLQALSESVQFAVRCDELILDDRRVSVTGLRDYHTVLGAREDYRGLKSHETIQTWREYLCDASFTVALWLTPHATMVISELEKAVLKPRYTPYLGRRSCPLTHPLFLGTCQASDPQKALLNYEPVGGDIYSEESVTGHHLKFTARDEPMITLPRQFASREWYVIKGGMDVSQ
T2 sequence 4: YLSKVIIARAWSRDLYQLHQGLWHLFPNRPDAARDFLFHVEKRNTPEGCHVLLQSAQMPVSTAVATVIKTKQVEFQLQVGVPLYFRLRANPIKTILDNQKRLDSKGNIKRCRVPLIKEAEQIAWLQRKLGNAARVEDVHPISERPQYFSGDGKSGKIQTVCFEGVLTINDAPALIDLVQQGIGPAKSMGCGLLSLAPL

[3] = target: T3, Cas7, Cas6 and Cas5 of E. coli Type I-E Cascade with L3 crRNA (Escherichia coli K-12 MG1655, UniProt Q46899 2-363; Q46897 2-199; Q46898 1-224); assay: co-expression in E. coli, Strep-Tactin capture by Strep-tag II on Cse2, SEC, Coomassie SDS-PAGE
T3 construct: They also hold the L3 crRNA; This grouping is mine
T3 sequence 1: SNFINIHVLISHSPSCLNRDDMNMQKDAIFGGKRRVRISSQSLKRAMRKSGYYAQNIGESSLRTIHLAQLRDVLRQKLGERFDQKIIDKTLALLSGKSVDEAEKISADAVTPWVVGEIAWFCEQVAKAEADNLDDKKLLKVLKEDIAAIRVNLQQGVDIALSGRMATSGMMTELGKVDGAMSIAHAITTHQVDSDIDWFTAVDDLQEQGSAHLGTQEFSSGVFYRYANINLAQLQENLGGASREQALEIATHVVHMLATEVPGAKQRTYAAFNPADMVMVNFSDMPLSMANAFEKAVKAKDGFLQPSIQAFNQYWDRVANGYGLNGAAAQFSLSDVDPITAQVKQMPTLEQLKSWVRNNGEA
T3 sequence 2: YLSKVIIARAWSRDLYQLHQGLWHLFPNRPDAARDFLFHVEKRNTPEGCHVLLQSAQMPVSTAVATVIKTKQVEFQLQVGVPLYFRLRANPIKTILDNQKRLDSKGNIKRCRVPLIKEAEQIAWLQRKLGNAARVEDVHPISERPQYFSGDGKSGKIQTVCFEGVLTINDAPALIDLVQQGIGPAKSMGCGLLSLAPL
T3 sequence 3: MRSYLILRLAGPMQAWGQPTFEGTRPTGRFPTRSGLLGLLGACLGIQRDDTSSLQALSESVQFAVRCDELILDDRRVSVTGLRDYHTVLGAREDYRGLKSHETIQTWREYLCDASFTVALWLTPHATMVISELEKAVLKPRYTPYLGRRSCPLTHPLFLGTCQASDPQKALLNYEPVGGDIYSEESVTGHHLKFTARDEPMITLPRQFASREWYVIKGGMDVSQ

B1: His6-HRV3C-Cse2 (other)
chain: MAEHHHHHHGALEVLFQGPGYQMADEIDAMALYRAWQQLDNGSCAQIRRVSEPDELRDIPAFYRLVQPFGWENPRHQQALLRMVFCLSAGKNVIRHQDKKSEQTTGISLGRALANSGRINERRIFQLIRADRTADMVQLRRLLTHAEPVLDWPLMARMLTWWGKRERQQLLEDFVLTTNKNA
notes: The tagged subunit by which the Cascade complex was captured on Ni-NTA resin
binding result [1]: binds

B2: NLS-GGS-FokISharkey-30aa-linker-Cas8 (after TEV cleavage) (other)
chain: SNMPKKKRKVQLVKSELEEKKSELRHKLKYVPHEYIELIEIARNPTQDRILEMKVMEFFMKVYGYRGEHLGGSRKPDGAIYTVGSPIDYGVIVDTKAYSGGYNLPIGQADEMQRYVEENQTRNKHINPNEWWKVYPSSVTEFKFLFVSGHFKGNYKAQLTRLNHITNCNGAVLSVEELLIGGEMIKAGTLTLEEVRRKFNNGEINFSGSETPGTSESATPESGGSGSSGGSGSSGGMNLLIDNWIPVRPRNGGKVQIINLQSLYCSRDQWRLSLPRDDMELAALALLVCIGQIIAPAKDDVEFRHRIMNPLTEDEFQQLIAPWIDMFYLNHAEHPFMQTKGVKANDVTPMEKLLAGVSGATNCAFVNQPGQGEALCGGCTAIALFNQANQAPGFGGGFKSGLRGGTPVTTFVRGIDLRSTVLLNVLTLPRLQKQFPNESHTENQPTWIKPIKSNESIPASSIGFVRGLFWQPAHIELCDPIGIGKCSCCGQESNLRYTGFLKEKFTFTVNGLWPHPHSPCLVTVKKGEVEEKFLAFTTSAPSWTQISRVVVDKIIQNENGNRVAAVVNQFRNIAPQSPLELIMGGYRNNQASILERRHDVLMFNQGWQQYGNVINEIVTVGLGYKTALRKALYTFAEGFKNKDFKGAGVSVHETAERHFYRQSELLIPDVLANVNFSQADEVIADLRDKLHQLCEMLFNQSVAPYAHHPKLISTLALARATLYKHLRELKPQGGPSNG
notes: The tag was removed with TEV protease; also called Fokl-Cas8 fusion protein
binding result [2]: binds

B3: Strep-tag II-HRV3C-Cse2 (other)
chain: MASWSHPQFEKGALEVLFQGPGYQMADEIDAMALYRAWQQLDNGSCAQIRRVSEPDELRDIPAFYRLVQPFGWENPRHQQALLRMVFCLSAGKNVIRHQDKKSEQTTGISLGRALANSGRINERRIFQLIRADRTADMVQLRRLLTHAEPVLDWPLMARMLTWWGKRERQQLLEDFVLTTNKNA
notes: The tagged subunit by which the CasBCDE complex was captured on Strep-Tactin resin
binding result [3]: binds
